From publication PMC3415985
Values belong to the substance of their own block, whether it stands above or below them.

Columns and labels:
Assay in all cases: AUC
[1] = target: BirA D176A (Escherichia coli) (UniProt P06709)
[2] = target: BirA G142A (Escherichia coli) (UniProt P06709)
[3] = target: BirA I280A (Escherichia coli) (UniProt P06709)
[4] = target: BirA K172A (Escherichia coli) (UniProt P06709)

- Kd [1]: > 6 mM
Substance: BirA D176A (from UniProt P06709 1-321) (enzyme)

- Kd [2]: > 17 mM
Substance: BirA G142A (from UniProt P06709 1-321) (enzyme)

- Kd [3]: > 4 mM
Substance: BirA I280A (from UniProt P06709 1-321) (enzyme)

- Kd [4]: > 0.7 mM
Substance: BirA K172A (from UniProt P06709 1-321) (enzyme)
